In patent publication US20100331256:
Values joined by “and” are separate entries in the source; they are usually repeats but may differ in a detail not shown here. Equal entries are not always repeated.

Key:
[1] = target: T1, Analog CS: GQEHPNARKYKGANPK-CNP22 (modified CNP37) (not fully specified)
T1 chain: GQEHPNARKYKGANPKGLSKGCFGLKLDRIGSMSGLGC

[2] = target: T2, Analog CC: DLRVDTKSRAAWAR-CNP22
T2 chain: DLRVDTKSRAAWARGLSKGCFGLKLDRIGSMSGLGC

[3] = target: T3, Analog A: CNP22, C6-CH2-NH (reduced carbonyl)
T3 chain: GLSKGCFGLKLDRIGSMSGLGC

[4] = target: T4, Analog B: CNP22, N-methyl-F7 (methylated amide)
T4 chain: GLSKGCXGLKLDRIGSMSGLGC

[5] = target: T5, Analog AC: CNP22, K4R, G8T
T5 chain: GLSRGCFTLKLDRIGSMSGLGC

Analog BA: ER-CNP22, K4R = target: T6, Analog BA: ER-CNP22, K4R
T6 chain: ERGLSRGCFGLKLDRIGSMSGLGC

[6] = target: T7, Analog BJ: CNP22, K4R, G15N
T7 chain: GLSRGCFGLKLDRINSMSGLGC

PEO12-GANRR-CNP22(K4R) = target: T8, PEO12-GANRR-CNP22(K4R)
T8 chain: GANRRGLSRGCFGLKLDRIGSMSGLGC

Analog AH: CNP22, K4R = target: T9, Analog AH: CNP22, K4R
T9 chain: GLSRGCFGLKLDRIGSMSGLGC

[7] = target: T10, Analog BL: QEHPNARKYKGANKK-CNP22 (CNP37)
T10 chain: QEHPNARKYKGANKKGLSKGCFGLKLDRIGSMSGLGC

[8] = target: T11, Analog AV: Pentanoic acid (N-term.)-CNP22, G1E, K4E (not fully specified)
T11 chain: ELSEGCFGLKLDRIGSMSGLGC

Analog P: CNP22, K4G = target: T12, Analog P: CNP22, K4G
T12 chain: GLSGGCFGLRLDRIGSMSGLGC

[9] = target: T13, PEO4-(PEO12)3 (branched)-CNP22
T13 chain: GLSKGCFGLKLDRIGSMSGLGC

[10] = target: T14, Analog K: CNP22, N-methyl-L9, N-methyl-L20
T14 chain: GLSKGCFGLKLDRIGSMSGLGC

(PEO12)-Biotin-CNP22 = target: T15, (PEO12)-Biotin-CNP22
T15 chain: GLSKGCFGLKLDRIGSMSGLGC

[11] = target: T16, Analog V: CNP22, K4G, 3,4-dichloro-F7
T16 chain: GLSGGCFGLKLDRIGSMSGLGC

[12] = target: T17, Analog AT: CNP22, G1E, K4E
T17 chain: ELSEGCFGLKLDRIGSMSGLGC

PEO24-GANRR-CNP22(K4R) = target: T18, PEO24-GANRR-CNP22(K4R)
T18 chain: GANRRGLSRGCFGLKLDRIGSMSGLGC

[13] = target: T19, Analog CK: GQPREPQVYTGANQQ-CNP22, K4R (IgG1 fragment)
T19 chain: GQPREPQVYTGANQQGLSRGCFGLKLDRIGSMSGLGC

[14] = target: T20, Analog CL: GVPQVSTSTGANQQ-CNP22, K4R (HSA fragment)
T20 chain: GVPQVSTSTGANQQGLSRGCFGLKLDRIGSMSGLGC

PEG2K-CNP22 = target: T21, PEG2K-CNP22
T21 chain: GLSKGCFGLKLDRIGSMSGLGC

PEO12-R-CNP22(K4R) = target: T22, PEO12-R-CNP22(K4R)
T22 chain: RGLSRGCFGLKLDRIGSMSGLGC

[15] = target: T23, Analog N: D-CNP22 (all D-amino acids)
T23 chain: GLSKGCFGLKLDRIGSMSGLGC

PEG1K-GANRR-CNP22(K4R) = target: T24, PEG1K-GANRR-CNP22(K4R)
T24 chain: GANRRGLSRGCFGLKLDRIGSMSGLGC

[16] = target: T25, Analog X: CNP22, K4G, 3-methyl-F7
T25 chain: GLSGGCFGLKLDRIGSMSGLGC

[17] = target: T26, wild-type C-type natriuretic peptide 22 (CNP22)
T26 chain: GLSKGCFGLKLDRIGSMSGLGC

[18] = target: T27, Analog AY: GANRR-CNP22, K4R (CNP-27)
T27 chain: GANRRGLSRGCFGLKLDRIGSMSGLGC

[19] = target: T28, Analog F: CNP22, t-butyl-G8
T28 chain: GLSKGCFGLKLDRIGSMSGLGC

[20] = target: T29, Analog BK: CNP22, K4R, G15S
T29 chain: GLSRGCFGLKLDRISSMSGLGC

PEO24-CNP22 = target: T30, PEO24-CNP22
T30 chain: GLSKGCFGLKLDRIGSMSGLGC

Analog BM: CNP53 = target: T31, Analog BM: CNP53
T31 chain: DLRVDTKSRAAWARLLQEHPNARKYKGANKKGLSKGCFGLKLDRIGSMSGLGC

[21] = target: T32, Analog AW: Heptanoic acid (N-term.)-CNP22, G1E, K4E
T32 chain: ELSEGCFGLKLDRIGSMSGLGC

[22] = target: T33, Analog CF: GQPREPQVYTLPPS-CNP22 (IgG1(Fc) fragment)
T33 chain: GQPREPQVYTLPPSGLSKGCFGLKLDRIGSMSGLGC

PEO12-CNP22 = target: T34, PEO12-CNP22
T34 chain: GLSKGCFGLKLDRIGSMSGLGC

[23] = target: T35, Analog E: CNP22, D-F7 (D-Phe)
T35 chain: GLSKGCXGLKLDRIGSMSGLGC

PEG2K-CNP17 = target: T36, PEG2K-CNP17
T36 chain: CFGLKLDRIGSMSGLGC

[24] = target: T37, Analog BB: Heptanoic acid (N-term.)-CNP22, G1E
T37 chain: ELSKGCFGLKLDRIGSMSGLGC

PEO12-GANPR-CNP22(K4R) = target: T38, PEO12-GANPR-CNP22(K4R)
T38 chain: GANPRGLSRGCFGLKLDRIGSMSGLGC

PEG5K-CNP22 = target: T39, PEG5K-CNP22
T39 chain: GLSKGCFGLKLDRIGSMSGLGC

[25] = target: T40, Analog G: CNP22, 3-chloro-F7
T40 chain: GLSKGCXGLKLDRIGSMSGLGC

[26] = target: T41, Analog H: CNP22, Beta-2-F7 (3-amino-2-phenylpropionyl)
T41 chain: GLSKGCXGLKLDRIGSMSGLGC

Analog AZ: R-CNP22, K4R = target: T42, Analog AZ: R-CNP22, K4R
T42 chain: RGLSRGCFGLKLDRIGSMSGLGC

PEG20K-CNP22 = target: T43, PEG20K-CNP22
T43 chain: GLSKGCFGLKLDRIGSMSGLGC

[27] = target: T44, Analog CG: GANSS-CNP22, K4R
T44 chain: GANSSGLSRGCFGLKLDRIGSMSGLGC

[28] = target: T45, Analog L: CNP22, N-methyl-L9, N-methyl-L11, N-methyl-L20
T45 chain: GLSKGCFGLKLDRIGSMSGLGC

[29] = target: T46, Analog M: CNP22, N-methyl-L9, N-methyl-L11
T46 chain: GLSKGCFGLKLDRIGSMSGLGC

PEG1K-CNP22 = target: T47, PEG1K-CNP22
T47 chain: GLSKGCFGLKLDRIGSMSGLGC

B1: recombinant human neutral endopeptidase (NEP) (protein)
chain: DDGICKSSDCIKSAARLIQNMDATTEPCTDFFKYACGGWLKRNVIPETSSRYGNFDILRDELEVVLKDVLQEPKTEDIVAVQKAKALYRSCINESAIDSRGGEPLLKLLPDIYGWPVATENWEQKYGASWTAEKAIAQLNSKYGKKVLINLFVGTDDKNSVNHVIHIDQPRLGLPSRDYYECTGIYKEACTAYVDFMISVARLIRQEERLPIDENQLALEMNKVMELEKEIANATAKPEDRNDPMLLYNKMTLAQIQNNFSLEINGKPFSWLNFTNEIMSTVNISITNEEDVVVYAPEYLTKLKPILTKYSARDLQNLMSWRFIMDLVSSLSRTYKESRNAFRKALYGTTSETATWRRCANYVNGNMENAVGRLYVEAAFAGESKHVVEDLIAQIREVFIQTLDDLTWMDAETKKRAEEKALAIKERIGYPDDIVSNDNKLNNEYLELNYKEDEYFENIIQNLKFSQSKQLKKLREKVDKDEWISGAAVVNAFYSSGRNQIVFPAGILQPPFFSAQQSNSLNYGGIGMVIGHEITHGFDDNGRNFNKDGDLVDWWTQQSASNFKEQSQCMVYQYGNFSWDLAGGQHLNGINTLGENIADNGGLGQAYRAYQNYIKKNGEEKLLPGLDLNHKQLFFLNFAQVWCGTYRPEYAVNSIKTDVHSPGNFRIIGTLQNSAEFSEAFHCRKNSYMNPEKKCRVW
- NEP cleavage t1/2 [1]: > 2.67 h
- NEP cleavage t1/2 [2]: > 2.67 h
- NEP cleavage t1/2 [3]: 0.917 h
- NEP cleavage t1/2 [4]: 1.33 h
- NEP cleavage t1/2 [5]: 1.33 h
- NEP cleavage t1/2 (Analog BA: ER-CNP22, K4R): 1.5 h
- NEP cleavage t1/2 [6]: 2.5 h
- NEP cleavage t1/2 (PEO12-GANRR-CNP22(K4R)): > 2.67 h
- NEP cleavage t1/2 (Analog AH: CNP22, K4R): 1.33 h
- NEP cleavage t1/2 [7]: > 2.67 h
- NEP cleavage t1/2 [8]: 2 h
- NEP cleavage t1/2 (Analog P: CNP22, K4G): 1.13 h
- NEP cleavage t1/2 [9]: > 2.67 h
- NEP cleavage t1/2 [10]: 1.33 h
- NEP cleavage t1/2 ((PEO12)-Biotin-CNP22): 2.33 h
- NEP cleavage t1/2 [11]: 1.13 h
- NEP cleavage t1/2 [12]: 1 h
- NEP cleavage t1/2 (PEO24-GANRR-CNP22(K4R)): > 2.67 h
- NEP cleavage t1/2 [13]: ≥ 2.67 h
- NEP cleavage t1/2 [14]: > 2.67 h
- NEP cleavage t1/2 (PEG2K-CNP22): > 2.67 h
- NEP cleavage t1/2 (PEO12-R-CNP22(K4R)): ≥ 2.67 h
- NEP cleavage t1/2 [15]: > 2.67 h
- NEP cleavage t1/2 (PEG1K-GANRR-CNP22(K4R)): > 2.67 h
- NEP cleavage t1/2 [16]: 1.13 h
- NEP cleavage t1/2 [17]: 1.33 h
- NEP cleavage t1/2 [18]: 1.08 h
- NEP cleavage t1/2 [19]: 1.33 h
- NEP cleavage t1/2 [20]: ≥ 2.67 h
- NEP cleavage t1/2 (PEO24-CNP22): > 2.67 h
- NEP cleavage t1/2 (Analog BM: CNP53): > 2.67 h
- NEP cleavage t1/2 [21]: < 0.333 h
- NEP cleavage t1/2 [22]: > 2.67 h
- NEP cleavage t1/2 (PEO12-CNP22): ≥ 2.67 h
- NEP cleavage t1/2 [23]: 2.17 h
- NEP cleavage t1/2 (PEG2K-CNP17): > 2.67 h
- NEP cleavage t1/2 [24]: 0.75 h and 1.08 h
- NEP cleavage t1/2 (PEO12-GANPR-CNP22(K4R)): 1.33 h
- NEP cleavage t1/2 (PEG5K-CNP22): > 2.67 h
- NEP cleavage t1/2 [25]: 2.25 h
- NEP cleavage t1/2 [26]: 1.33 h
- NEP cleavage t1/2 (Analog AZ: R-CNP22, K4R): ≥ 2.67 h
- NEP cleavage t1/2 (PEG20K-CNP22): > 2.67 h
- NEP cleavage t1/2 [27]: 1.58 h
- NEP cleavage t1/2 [28]: 0.5 h
- NEP cleavage t1/2 [29]: > 2.67 h
- NEP cleavage t1/2 (PEG1K-CNP22): > 2.67 h
